Patent US20240352105A1, “COMPOSITIONS AND METHODS FOR NEUTRALIZING ANTIGENS” (PACAGEN, INC, priority 2023, published 2024)
“And” between values parts separate entries of the source, which are not always exact repeats. Identical values can stand only once.

Key:
[1] = test system: biotinylated anti-His antibody; test: Recombinant Can f1-His ELISA binding assay
Protocol: (§1) In order to obtain single variable domain on heavy chain, i.e., VHH, specific for dog allergen Can f1, a recombinant His-tagged Can f1 was prepared, which reached high purity, as shown via SDS-Page Western blotting in FIG. 4. To confirm this, an ELISA was performed measuring optical density when the recombinant Can f1-His is incubated with a biotinylated anti-His antibody. As summarized in Table 4, the recombinant Can f1-His was effectively bound by the antibody.

[2] = biological target: T1, recombinant His-tagged Can f1 (dog (Canis familiaris), UniProt O18873 19-174); test: ELISA, antigen coated
T1 construct: also called Can f1-His; recombinant Can f1; not shown: His tag
Protocol: (§2) 2 microgram per milliliter (μg/mL) target antigen is coated in a 96-well plate and ELISA assay is performed after incubation with candidate VHHs. The binding EC50 of each clone is calculated using Prism GraphPad. The positive control antibody is involved as an internal control.
(§3) Isolated VHH clones were further validated by performing an ELISA assay as described in Example 1. Metrics of thermostability including melting temperature (Tₘ), onset temperature (Tₒₙₛₑₜ), and temperature of aggregation (Tagg), were also tested with increasing temperature in the range of 20° C.-95° C. at the speed of 1° C./min. The individual binding curves are shown for each candidate in FIGS. 5B-5H.

[3] = Thermostability (Tm, Tonset, Tagg) by Nanotemper DSF; assay type: physicochemical; design: key to Tm2 / Tagg / Tm1 / Tm / Tm3 / Tonset / Tonset ø (mean) / Tagg ø (mean): temperatures in °C; conditions: for Tm1: first melting point; for Tm2: second melting point; for Tm: single melting point
Protocol: as §3, with “(Tm),” for “(Tₘ),”, “(Tonset),” for “(Tₒₙₛₑₜ),”, “C./min. These measurements were performed using a Nanotemper DSF. When applicable, Tm1 refers to the first melting point observed, Tm2 refers to the second melting point observed, etc., Sequence information for the VHH clones and the binding assay results are summarized in Table 3.” for “C./min.”, “3B-3I.” for “5B-5H.”
as §3, with “(Tm),” for “(Tₘ),”, “(Tonset),” for “(Tₒₙₛₑₜ),”
as §3, with “(Tm),” for “(Tₘ),”, “(Tonset),” for “(Tₒₙₛₑₜ),”, “7B-7P.” for “5B-5H.”
The detailed thermostability graphs used to determine the Tm, Tonset, and Tagg are illustrated in FIGS. 19A-19I and raw data is summarized in Table 23. Any subsequent melting points observed (Tm1, Tm2, Tm3, etc.) are separated by commas.

[4] = biological target: T2, Fel D1 (Felis catus, UniProt P30438); test: ELISA binding assay of anti-Fel d1 VHH clones on Fel D1 epitopes; design: species or system cat
T2 construct: made in house; host or cells: chemically synthesized peptides
Protocol: as §2
Four distinct epitopes of Fel D1 were selected to be used for further identification. Peptides were synthesized for the four epitopes for VHH identification.
Isolated VHH clones were further validated by performing an ELISA assay as described in Example 1. Binding results are shown in FIG. 15B-15D for the epitope of SEQ ID NO: 61. Binding results are shown in FIG. 16 for the epitope of SEQ ID NO: 59. Binding results are shown in FIG. 17A-17E for the epitope of SEQ ID NO: 60. Binding results are shown in FIG. 18 for the epitope of SEQ ID NO: 58.

[5] = test system: biotinylated anti-His antibody; test: Recombinant Can f2-His ELISA binding assay
Protocol: as §1, with “f2,” for “f1,”, “f2” for “f1”, “6.” for “4.”, “f2-His” for “f1-His”, “7,” for “4,”

[6] = test system: known Der p2 antibody (clone 6OY4); test: Recombinant Der p2-His ELISA binding assay
Protocol: In order to obtain single variable domain on heavy chain, i.e., VHH, specific for dust mite allergen Der p2, a recombinant His-tagged Der p2 was prepared, which reached high purity, as shown via SDS-Page Western blotting in FIG. 2. To confirm this, an ELISA was performed. Briefly, the Der p2-HIS was coated onto an ELISA plate and a known Der p2 antibody (clone 6OY4) was added. A secondary detection antibody capable of binding to the Der p2 antibody was then added. The secondary detection antibody was conjugated to a horseradish peroxidase, which can be utilized to produce a colorimetric reaction. Then, optical density was measured. As summarized in Table 1, the recombinant Der p2-His was effectively bound by the antibody.

[7] = anti-Can f1 VHH, 20° C.-95° C. at 1° C./min
[8] = anti-Can f1 VHH, in °C (unit assumed)
[9] = Average of two replicates, anti-Fel d1 VHH
[10] = Average of two replicates, anti-Fel d1 VHH, in °C (unit assumed)
[11] = Replicate 1, in °C (unit assumed)
[12] = Replicate 2, in °C (unit assumed)
[13] = anti-Fel d1 VHH, in °C (unit assumed)
[14] = Epitope Recognized ENARILKNCVDAKM (SEQ ID NO: 61)

T1 sequence (O18873 19-174 limits assumed): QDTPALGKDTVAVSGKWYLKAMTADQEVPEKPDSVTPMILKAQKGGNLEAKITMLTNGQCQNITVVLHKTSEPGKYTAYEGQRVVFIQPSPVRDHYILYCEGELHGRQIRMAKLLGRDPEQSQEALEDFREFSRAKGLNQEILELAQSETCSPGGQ

## Can f1-His: recombinant His-tagged dog allergen Can f1
[1]; Can f1-His Concentration 0.00064 μg/mL
  OD at 450 nm: 0.07 and 0.11
[1]; Can f1-His Concentration 0.0032 μg/mL
  OD at 450 nm: 0.09 and 0.11
[1]; Can f1-His Concentration 0.016 μg/mL
  OD at 450 nm: 0.09 and 0.12
[1]; Can f1-His Concentration 0.08 μg/mL
  OD at 450 nm: 0.15 and 0.16
[1]; Can f1-His Concentration 0.4 μg/mL
  OD at 450 nm: 0.21 and 0.24
[1]; Can f1-His Concentration 2 μg/mL
  OD at 450 nm: 0.95 and 1.03
[1]; Can f1-His Concentration 10 μg/mL
  OD at 450 nm: 2.84 and 2.92

B1: SDAB22112-2-B06 (VHH)
VHH: QVQLVESGGGLVQPGGSLRLSCAASGFTFRLAAMGWYRQAPEKEREWVASITGPGTDTNYADSVKGRFTVSRDNAKNTVYLQMNSLKPEDTAVYYCRGMGYWGKGTLVTVSS
notes: anti-Can f1 alpaca VHH
[2]
  EC50: 0.144 µg/mL
[3]; [7]
  Tagg: 48.00
[3]; [8]
  Tm1: 56.38
  Tm2: 63.74
[3]; anti-Can f1 VHH, third melting point, in °C (unit assumed)
  Tm3: 70.13

B2: SDAB22110-3-2-H08: anti-Fel d1 VHH clone, SEQ ID NO: 53 (protein)
VHH: QVQLVESGGGLVQPGGSLRLSCAASGFTFSRKGMSWYRQVPGKEREWVARIYSTGEKTDYADSVKGRFTISRDNAKNMVYLDMNSLKPEDTAVYYCKAWGYEYWNQGTQVTVSS
[4]; Epitope Recognized AKMTEEDKENALS (SEQ ID NO: 60)
  EC50: 5.024 µg/mL
[3]; [9]
  Tagg ø (mean): 42.30
  Tonset ø (mean): 37.18
[3]; [10]
  Tm ø (mean), first melting point (Tm1): 47.50
[3]; Replicate 1
  Tagg: 42.41
  Tonset: 37.03
[3]; [11]
  Tm, first melting point (Tm1): 47.46
[3]; Replicate 2
  Tagg: 42.19
  Tonset: 37.34
[3]; [12]
  Tm, first melting point (Tm1): 47.53
[3]; anti-Fel d1 VHH
  Tagg: 35.68
[3]; [13]
  Tm: 42.43

B3: Can f2-His: recombinant His-tagged dog allergen Can f2 (protein)
chain: QEGNHEEPQGGLEELSGRWHSVALASNKSDLIKPWGHFRVFIHSMSAKDGNLHGDILIPQDGQCEKVSLTAFKTATSNKFDLEYWGHNDLYLAEVDPKSYLILYMINQYNDDTSLVAHLMVRDLSRQQDFLPAFESVCEDIGLHKDQIVVLSDDDRCQGSRD
modifications: left off: small tags and cut ends
[5]; Can f2-His Concentration 0.00064 μg/mL
  OD at 450 nm: 0.10 and 0.11
[5]; Can f2-His Concentration 0.0032 μg/mL
  OD at 450 nm: 0.11
[5]; Can f2-His Concentration 0.016 μg/mL
  OD at 450 nm: 0.10 and 0.11
[5]; Can f2-His Concentration 0.08 μg/mL
  OD at 450 nm: 0.12 and 0.13
[5]; Can f2-His Concentration 0.4 μg/mL
  OD at 450 nm: 0.22 and 0.19
[5]; Can f2-His Concentration 2 μg/mL
  OD at 450 nm: 0.57 and 0.65
[5]; Can f2-His Concentration 10 μg/mL
  OD at 450 nm: 1.12 and 1.07

B4: SDAB22110-1-1-E4: anti-Fel d1 VHH clone, SEQ ID NO: 51 (protein)
VHH: QLQLVESGGGLVQPGGSLRLSCTASGFTFSTAGTSWYRQSPGKARKLVAELSRIGGIANYADSVKGRFTISRDNTRNTVYLQMNSLKPEDTAVYYCKVVTNRNYGFTYWGQGTQVTVSS
[4]; [14]
  EC50: 3.305 µg/mL
[3]; [9]
  Tagg ø (mean): 39.61
  Tonset ø (mean): 40.64
[3]; [10]
  Tm ø (mean), first melting point (Tm1): 50.69
[3]; Replicate 1
  Tagg: 39.62
  Tonset: 40.60
[3]; [11]
  Tm, first melting point (Tm1): 50.73
[3]; Replicate 2
  Tagg: 39.61
  Tonset: 40.64
[3]; [12]
  Tm, first melting point (Tm1): 50.66
[3]; anti-Fel d1 VHH
  Tagg: 42.78
  aggregates: Possible
[3]; [13]
  Tm1: 41.13
  Tm2: 52.88

B5: Der p2-His: recombinant His-tagged dust mite allergen Der p2 (protein)
chain: DQVDVKDCANHEIKKVLVPGCHGSEPCIIHRGKPFQLEAVFEANQNTKTAKIEIKASIDGLEVDVPGIDPNACHYMKCPLVKGQQYDIKYTWNVPKIAPKSENVVVTVKVMGDDGVLACAIATHAKIRD
modifications: left off: small tags and cut ends
[6]; Der p2-His Concentration 0.00064 μg/mL
  OD at 450 nm: 0.07 and 0.09
[6]; Der p2-His Concentration 0.0032 μg/mL
  OD at 450 nm: 0.09 and 0.10
[6]; Der p2-His Concentration 0.016 μg/mL
  OD at 450 nm: 0.11 and 0.12
[6]; Der p2-His Concentration 0.08 μg/mL
  OD at 450 nm: 0.38 and 0.35
[6]; Der p2-His Concentration 0.4 μg/mL
  OD at 450 nm: 1.31 and 1.37
[6]; Der p2-His Concentration 2 μg/mL
  OD at 450 nm: 4.06 and 4.02
[6]; Der p2-His Concentration 10 μg/mL
  OD at 450 nm: 4.61 and 4.57

B6: SDAB22110-1-1-B9-1: anti-Fel d1 VHH clone, SEQ ID NO: 50 (protein)
VHH: DVQLVESGGGWVQPGGSLRLSCAASGFTFTSYALSWVRQAPGKGLEWVSLADARGTSTTYADSVKGRFTISKDNPRNTLYLLMNSLKPEDTAVYYCTKGFDGNWYPDYDYWGQGTQVTVSS
[4]; [14]
  EC50: 14.440 µg/mL
[3]; [9]
  Tagg ø (mean): 41.73
  Tonset ø (mean): 42.07
[3]; [10]
  Tm ø (mean), first melting point (Tm1): 54.03
  Tm ø (mean), second melting point (Tm2): 63.20
[3]; Replicate 1
  Tagg: 41.73
  Tonset: 42.11
[3]; [11]
  Tm, first melting point (Tm1): 53.95
  Tm, second melting point (Tm2): 63.26
[3]; Replicate 2
  Tagg: 41.73
  Tonset: 42.04
[3]; [12]
  Tm, first melting point (Tm1): 54.10
  Tm, second melting point (Tm2): 63.15
[3]; anti-Fel d1 VHH
  Tagg: 41.73
  aggregates: Possible
[3]; [13]
  Tm1: 54.03
  Tm2: 63.20

B7: SDAB22112-1-D12 (VHH)
VHH: AVQLVDSGGGLVQAGGSLRLACAASGRTFDTYAVGWFRQAPGKERDVVASITWTSGSTWYADFVKGRFTISKDNAKNTVYLQMNNLSPEDTAVYYCGARNQIYTRWDSWGQGTQVTVSS
notes: anti-Can f1 alpaca VHH
[2]
  EC50: 4.01 µg/mL
[3]; [7]
  Tagg: 49.15
[3]; [8]
  Tm: 57.78
